Paper PMC11125477 (PLOS ONE, 2024)

Target: T1, MAMDC4 (UniProt Q63191 22-1216)
T1 construct: HEK293 cells also hold endogenous (human) MAMDC4, which the anti-MAMDC4 antibody may precipitate as well; also called Endotubin; AEGP; source: HEK293, transfected (overexpressed), in lysate
Test: co-IP; HEK293 cells overexpressing MAMDC4, control or 50% Wnt3a conditioned media for 6hrs; NP-40 lysis buffer; lysates precipitated with anti-MAMDC4 (hybridoma supernatant) or control IgG on Protein G Dynabeads overnight at 4°C; immunoblot; input 1/50th of lysate
Settings: partners not purified

T1 sequence (Q63191 22-1216): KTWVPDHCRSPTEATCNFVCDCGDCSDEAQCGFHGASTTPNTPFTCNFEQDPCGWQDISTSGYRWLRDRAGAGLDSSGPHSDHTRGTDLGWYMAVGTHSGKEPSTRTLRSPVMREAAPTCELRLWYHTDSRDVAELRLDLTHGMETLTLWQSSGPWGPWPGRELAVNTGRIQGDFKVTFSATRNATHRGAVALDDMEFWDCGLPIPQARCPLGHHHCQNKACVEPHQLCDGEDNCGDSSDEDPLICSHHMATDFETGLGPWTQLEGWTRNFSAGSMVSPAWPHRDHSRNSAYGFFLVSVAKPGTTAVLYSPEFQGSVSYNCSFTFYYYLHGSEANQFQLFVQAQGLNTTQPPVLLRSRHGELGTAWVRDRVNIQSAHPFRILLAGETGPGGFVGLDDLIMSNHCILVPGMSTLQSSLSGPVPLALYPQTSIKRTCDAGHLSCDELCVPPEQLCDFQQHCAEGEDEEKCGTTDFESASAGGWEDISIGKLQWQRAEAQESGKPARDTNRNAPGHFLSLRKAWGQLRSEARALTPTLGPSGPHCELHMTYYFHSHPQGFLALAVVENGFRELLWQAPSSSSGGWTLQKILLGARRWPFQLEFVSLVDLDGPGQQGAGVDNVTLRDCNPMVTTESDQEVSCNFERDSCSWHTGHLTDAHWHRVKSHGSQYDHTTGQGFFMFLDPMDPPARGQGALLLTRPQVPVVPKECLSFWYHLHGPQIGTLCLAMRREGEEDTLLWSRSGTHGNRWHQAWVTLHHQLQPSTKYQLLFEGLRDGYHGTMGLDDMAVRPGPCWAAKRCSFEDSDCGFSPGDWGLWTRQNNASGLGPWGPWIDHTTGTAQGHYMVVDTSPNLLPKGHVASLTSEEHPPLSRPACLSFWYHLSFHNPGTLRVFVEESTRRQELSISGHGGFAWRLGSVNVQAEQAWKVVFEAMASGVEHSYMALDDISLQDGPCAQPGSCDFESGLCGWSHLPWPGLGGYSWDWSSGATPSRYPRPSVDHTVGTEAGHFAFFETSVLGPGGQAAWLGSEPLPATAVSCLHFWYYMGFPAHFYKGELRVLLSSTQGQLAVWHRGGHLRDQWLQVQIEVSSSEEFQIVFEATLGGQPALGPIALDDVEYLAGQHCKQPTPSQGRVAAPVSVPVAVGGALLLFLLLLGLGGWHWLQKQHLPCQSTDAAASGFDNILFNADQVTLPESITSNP

Binder | ratio of signal from immunoprecipitation relative to input
LRP6 (receptor, human (endogenous in HEK293), UniProt O75581 20-1613, looked up, LRP6, endogenous in HEK293 cells, detected with rabbit anti-LRP6 (CST 2560); also called total LRP6; source: endogenous, HEK293 lysate) APLLLYANRRDLRLVDATNGKENATIVVGGLEDAAAVDFVFSHGLIYWSDVSEEAIKRTEFNKTESVQNVVVSGLLSPDGLACDWLGEKLYWTDSETNRIEVSNLDGSLRKVLFWQELDQPRAIALDPSSGFMYWTDWGEVPKIERAGMDGSSRFIIINSEIYWPNGLTLDYEEQKLYWADAKLNFIHKSNLDGTNRQAVVKGSLPHPFALTLFEDILYWTDWSTHSILACNKYTGEGLREIHSDIFSPMDIHAFSQQRQPNATNPCGIDNGGCSHLCLMSPVKPFYQCACPTGVKLLENGKTCKDGATELLLLARRTDLRRISLDTPDFTDIVLQLEDIRHAIAIDYDPVEGYIYWTDDEVRAIRRSFIDGSGSQFVVTAQIAHPDGIAVDWVARNLYWTDTGTDRIEVTRLNGTMRKILISEDLEEPRAIVLDPMVGYMYWTDWGEIPKIERAALDGSDRVVLVNTSLGWPNGLALDYDEGKIYWGDAKTDKIEVMNTDGTGRRVLVEDKIPHIFGFTLLGDYVYWTDWQRRSIERVHKRSAEREVIIDQLPDLMGLKATNVHRVIGSNPCAEENGGCSHLCLYRPQGLRCACPIGFELISDMKTCIVPEAFLLFSRRADIRRISLETNNNNVAIPLTGVKEASALDFDVTDNRIYWTDISLKTISRAFMNGSALEHVVEFGLDYPEGMAVDWLGKNLYWADTGTNRIEVSKLDGQHRQVLVWKDLDSPRALALDPAEGFMYWTEWGGKPKIDRAAMDGSERTTLVPNVGRANGLTIDYAKRRLYWTDLDTNLIESSNMLGLNREVIADDLPHPFGLTQYQDYIYWTDWSRRSIERANKTSGQNRTIIQGHLDYVMDILVFHSSRQSGWNECASSNGHCSHLCLAVPVGGFVCGCPAHYSLNADNRTCSAPTTFLLFSQKSAINRMVIDEQQSPDIILPIHSLRNVRAIDYDPLDKQLYWIDSRQNMIRKAQEDGSQGFTVVVSSVPSQNLEIQPYDLSIDIYSRYIYWTCEATNVINVTRLDGRSVGVVLKGEQDRPRAVVVNPEKGYMYFTNLQERSPKIERAALDGTEREVLFFSGLSKPIALALDSRLGKLFWADSDLRRIESSDLSGANRIVLEDSNILQPVGLTVFENWLYWIDKQQQMIEKIDMTGREGRTKVQARIAQLSDIHAVKELNLQEYRQHPCAQDNGGCSHICLVKGDGTTRCSCPMHLVLLQDELSCGEPPTCSPQQFTCFTGEIDCIPVAWRCDGFTECEDHSDELNCPVCSESQFQCASGQCIDGALRCNGDANCQDKSDEKNCEVLCLIDQFRCANGQCIGKHKKCDHNVDCSDKSDELDCYPTEEPAPQATNTVGSVIGVIVTIFVSGTVYFICQRMLCPRMKGDGETMTNDYVVHGPASVPLGYVPHPSSLSGSLPGMSRGKSMISSLSIMGGSSGPPYDRAHVTGASSSSSSSTKGTYFPAILNPPPSPATERSHYTMEFGYSSNSPSTHRSYSYRPYSYRHFAPPTTPCSTDVCDSDYAPSRRMTSVATAKGYTSDLNYDSEPVPPPPTPRSQYLSAEENYESCPPSPYTERSYSHHLYPPPPSPCTDSS | ~1 ratio IP to input
phospho-LRP6 (Ser 1490) (receptor, human (endogenous in HEK293), UniProt O75581 20-1613, looked up, phosphoserine at 1490, LRP6 phosphorylated at Ser 1490, endogenous in HEK293 cells, detected with rabbit anti-phospho-LRP6 (Ser 1490) (CST 2568); also called p-LRP6; source: endogenous, HEK293 lysate) APLLLYANRRDLRLVDATNGKENATIVVGGLEDAAAVDFVFSHGLIYWSDVSEEAIKRTEFNKTESVQNVVVSGLLSPDGLACDWLGEKLYWTDSETNRIEVSNLDGSLRKVLFWQELDQPRAIALDPSSGFMYWTDWGEVPKIERAGMDGSSRFIIINSEIYWPNGLTLDYEEQKLYWADAKLNFIHKSNLDGTNRQAVVKGSLPHPFALTLFEDILYWTDWSTHSILACNKYTGEGLREIHSDIFSPMDIHAFSQQRQPNATNPCGIDNGGCSHLCLMSPVKPFYQCACPTGVKLLENGKTCKDGATELLLLARRTDLRRISLDTPDFTDIVLQLEDIRHAIAIDYDPVEGYIYWTDDEVRAIRRSFIDGSGSQFVVTAQIAHPDGIAVDWVARNLYWTDTGTDRIEVTRLNGTMRKILISEDLEEPRAIVLDPMVGYMYWTDWGEIPKIERAALDGSDRVVLVNTSLGWPNGLALDYDEGKIYWGDAKTDKIEVMNTDGTGRRVLVEDKIPHIFGFTLLGDYVYWTDWQRRSIERVHKRSAEREVIIDQLPDLMGLKATNVHRVIGSNPCAEENGGCSHLCLYRPQGLRCACPIGFELISDMKTCIVPEAFLLFSRRADIRRISLETNNNNVAIPLTGVKEASALDFDVTDNRIYWTDISLKTISRAFMNGSALEHVVEFGLDYPEGMAVDWLGKNLYWADTGTNRIEVSKLDGQHRQVLVWKDLDSPRALALDPAEGFMYWTEWGGKPKIDRAAMDGSERTTLVPNVGRANGLTIDYAKRRLYWTDLDTNLIESSNMLGLNREVIADDLPHPFGLTQYQDYIYWTDWSRRSIERANKTSGQNRTIIQGHLDYVMDILVFHSSRQSGWNECASSNGHCSHLCLAVPVGGFVCGCPAHYSLNADNRTCSAPTTFLLFSQKSAINRMVIDEQQSPDIILPIHSLRNVRAIDYDPLDKQLYWIDSRQNMIRKAQEDGSQGFTVVVSSVPSQNLEIQPYDLSIDIYSRYIYWTCEATNVINVTRLDGRSVGVVLKGEQDRPRAVVVNPEKGYMYFTNLQERSPKIERAALDGTEREVLFFSGLSKPIALALDSRLGKLFWADSDLRRIESSDLSGANRIVLEDSNILQPVGLTVFENWLYWIDKQQQMIEKIDMTGREGRTKVQARIAQLSDIHAVKELNLQEYRQHPCAQDNGGCSHICLVKGDGTTRCSCPMHLVLLQDELSCGEPPTCSPQQFTCFTGEIDCIPVAWRCDGFTECEDHSDELNCPVCSESQFQCASGQCIDGALRCNGDANCQDKSDEKNCEVLCLIDQFRCANGQCIGKHKKCDHNVDCSDKSDELDCYPTEEPAPQATNTVGSVIGVIVTIFVSGTVYFICQRMLCPRMKGDGETMTNDYVVHGPASVPLGYVPHPSSLSGSLPGMSRGKSMISSLSIMGGSSGPPYDRAHVTGASSSSSSSTKGTYFPAILNPPPSPATERSHYTMEFGYSSNSPSTHRSYSYRPYSYRHFAPPTTPCSTDVCDSDYAPSRRMTSVATAKGYTSDLNYDSEPVPPPPTPRSQYLSAEENYESCPPSPYTERSYSHHLYPPPPSPCTDSS | ~1 ratio IP to input
